Test results from patent US11814435B2, “Therapeutic antibodies and their uses” (PFIZER INC., priority 2015, dated 2023).
Where a chain is given by its changes, count along the chain named.

How the values were obtained:
hBCMA (human BCMA) = molecular target: T1, hBCMA (human BCMA) (Homo sapiens, UniProt Q02223); test: Kinetics and affinity of hBCMA/human IgG interactions by SPR (Bio-Rad Proteon XPR36); format: binding; conditions: huBCMA, 37° C.
T1 sequence (Q02223 1-184): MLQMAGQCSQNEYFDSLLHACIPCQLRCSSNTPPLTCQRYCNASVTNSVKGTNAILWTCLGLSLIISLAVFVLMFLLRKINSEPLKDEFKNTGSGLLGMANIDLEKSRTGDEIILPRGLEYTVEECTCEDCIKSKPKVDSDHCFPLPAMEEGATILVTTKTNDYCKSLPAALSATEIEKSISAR
Method: All experiments were performed on a Bio-Rad Proteon XPR36 surface Plasmon resonance biosensor (Bio-Rad, Hercules, Calif.). An array of anti-BCMA antibodies was prepared using an amine-coupling method on a Bio-Rad GLC Sensor Chip similar to that described in Abdiche, et al., Anal. Biochem. 411, 139-151 (2011). The analysis temperature for the immobilization was 25° C. and the running buffer was HBS-T+(10 mM HEPES, 150 mM NaCl, 0.05% Tween-20, pH 7.4). Channels were activated in the analyte (horizontal) direction by injecting a mixture of 1 mM ECD and 0.25 mM NHS for 3 minutes at a flow rate of 30 μL/min. IgGs were immobilized on the activated spots by injecting them in the ligand (vertical) direction at 20 μg/mL in 10 mM Acetate pH 4.5 buffer for 1.5 minutes at […]. The activated surfaces were blocked by injecting 1M ethanolamine, pH 8.5 in the analyte direction for 3 minutes at 30 μL/min.
The analysis temperature for the hBCMA binding analysis was 37° C. or 25° C. in a running buffer of HBS-T+, supplemented with 1 mg/mL BSA. A kinetic titration method was employed for the interaction analysis as described in Abdiche, et al. The hBCMA (human BCMA) analyte was injected in the analyte direction using a series of injections from low to high concentration. The concentrations used were 0.08 nM, 0.4 nM, 2 nM, 10 nM and 50 nM (a 5-membered series, with a 5-fold dilution factor and top concentration of 50 nM). The association time for a given analyte dilution was two minutes. Immediately after the 50 nM hBCMA injection, dissociation was monitored for 2 hours. Prior to the hBCMA analyte injections, buffer was injected 5 times using the same association and dissociation times at the hBCMA analyte cycles to prepare a buffer blank sensorgram for double-referencing purposes (double referencing as described in Myszka, J. Mol. Recognit. 12, 279-284 (1999).
The sensorgrams were double-referenced and fit to a 1:1 Langmuir with mass transport kinetic titration model in BIAevaluation Software version 4.1.1 (GE Lifesciences, Piscataway, N.J.). The sensorgrams and fits are shown in FIG. 1, and the kinetics and affinity parameters for various anti-BCMA antibodies of the present invention are shown in Tables 6A-6C.

cyBCMA = test: Kinetics and affinity of cyBCMA/human IgG interactions by SPR (Bio-Rad Proteon XPR36); format: binding, cynomolgus; conditions: 37° C.

B1: L3.PY/H2.LT: anti-BCMA antibody (antibody, V domains shown)
VH: EVQLLESGGGLVQPGGSLRLSCAASGFTFGSYAMTWVRQAPGKGLEWVSAISLTGGNTFYADSVKGRFTISRDNSKNTLYLQMNSLRAEDTAVYYCARVSPIASGMDYWGQGTLVTVSS
VL: EIVLTQSPGTLSLSPGERATLSCRASQSVSSSYLAWYQQKPGQAPRLLIYGASSRATGIPDRFSGSGSGTDFTLTISRLEPEDFAVYYCQHYPYPPSFTFGQGTKVEIK
ka (1/Ms) huBCMA @ 37° C. (hBCMA (human BCMA)): 2.4e+06 M⁻¹ s⁻¹
kd (1/s) huBCMA @37° C. (hBCMA (human BCMA)): 0.00129 s⁻¹
ka (1/Ms) cyBCMA @ 37° C. (cyBCMA): 2.09e+06 M⁻¹ s⁻¹
kd (1/s) cyBCMA @37° C. (cyBCMA): 0.00757 s⁻¹

B2: L3.PY/L1.AH/H2.YQ: anti-BCMA antibody (antibody, V domains shown)
VH: B1 VH with L53Y, T54Q
VL: B1 VL with S31A, S32H
ka (1/Ms) huBCMA @ 37° C. (hBCMA (human BCMA)): 2.42e+06 M⁻¹ s⁻¹
kd (1/s) huBCMA @37° C. (hBCMA (human BCMA)): 0.00193 s⁻¹
ka (1/Ms) cyBCMA @ 37° C. (cyBCMA): 1.58e+06 M⁻¹ s⁻¹
kd (1/s) cyBCMA @37° C. (cyBCMA): 0.00431 s⁻¹

B3: L3.PY/H2.QL: anti-BCMA antibody (antibody, V domains shown)
VH: B1 VH with L53G, T54S, S63Q, V64L
VL: B1 VL
ka (1/Ms) huBCMA @ 37° C. (hBCMA (human BCMA)): 2.64e+06 M⁻¹ s⁻¹
kd (1/s) huBCMA @37° C. (hBCMA (human BCMA)): 0.00218 s⁻¹
ka (1/Ms) cyBCMA @ 37° C. (cyBCMA): 2.05e+06 M⁻¹ s⁻¹
kd (1/s) cyBCMA @37° C. (cyBCMA): 0.0126 s⁻¹

B4: L3.PY/L1.PS/H2.QL: anti-BCMA antibody (antibody, V domains shown)
VH: B1 VH with L53G, T54S, S63Q, V64L
VL: B1 VL with L34P, A35S
ka (1/Ms) huBCMA @ 37° C. (hBCMA (human BCMA)): 1.52e+07 M⁻¹ s⁻¹
kd (1/s) huBCMA @37° C. (hBCMA (human BCMA)): 0.314 s⁻¹
ka (1/Ms) cyBCMA @ 37° C. (cyBCMA): 657000 M⁻¹ s⁻¹
kd (1/s) cyBCMA @37° C. (cyBCMA): 0.000636 s⁻¹

B5: L3.PY/H2.HA: anti-BCMA antibody (antibody, V domains shown)
VH: B1 VH with L53H, T54A
VL: B1 VL
ka (1/Ms) huBCMA @ 37° C. (hBCMA (human BCMA)): 2.43e+06 M⁻¹ s⁻¹
kd (1/s) huBCMA @37° C. (hBCMA (human BCMA)): 0.00147 s⁻¹
ka (1/Ms) cyBCMA @ 37° C. (cyBCMA): 1.99e+06 M⁻¹ s⁻¹
kd (1/s) cyBCMA @37° C. (cyBCMA): 0.00755 s⁻¹

B6: L3.PY/L1.PS/H3.AE: anti-BCMA antibody (antibody, V domains shown)
VH: B1 VH with L53G, T54S, S104A, G105E
VL: B1 VL with L34P, A35S
ka (1/Ms) huBCMA @ 37° C. (hBCMA (human BCMA)): 3.14e+06 M⁻¹ s⁻¹
kd (1/s) huBCMA @37° C. (hBCMA (human BCMA)): 0.00146 s⁻¹
ka (1/Ms) cyBCMA @ 37° C. (cyBCMA): 2.46e+06 M⁻¹ s⁻¹
kd (1/s) cyBCMA @37° C. (cyBCMA): 0.00413 s⁻¹

B7: L3.PY/L1.PS/H2.HA: anti-BCMA antibody (antibody, V domains shown)
VH: B1 VH with L53H, T54A
VL: B1 VL with L34P, A35S
ka (1/Ms) huBCMA @ 37° C. (hBCMA (human BCMA)): 3.3e+06 M⁻¹ s⁻¹
kd (1/s) huBCMA @37° C. (hBCMA (human BCMA)): 0.0106 s⁻¹
ka (1/Ms) cyBCMA @ 37° C. (cyBCMA): 1.45e+06 M⁻¹ s⁻¹
kd (1/s) cyBCMA @37° C. (cyBCMA): 0.00269 s⁻¹

B8: L3.PY/L1.PS/H3.YA: anti-BCMA antibody (antibody, V domains shown)
VH: B1 VH with L53G, T54S, A103Y, S104A
VL: B1 VL with L34P, A35S
ka (1/Ms) huBCMA @ 37° C. (hBCMA (human BCMA)): 3.07e+06 M⁻¹ s⁻¹
kd (1/s) huBCMA @37° C. (hBCMA (human BCMA)): 0.00905 s⁻¹
ka (1/Ms) cyBCMA @ 37° C. (cyBCMA): 1.77e+06 M⁻¹ s⁻¹
kd (1/s) cyBCMA @37° C. (cyBCMA): 0.00998 s⁻¹

B9: L3.PY/H3.YA: anti-BCMA antibody (antibody, V domains shown)
VH: B1 VH with L53G, T54S, A103Y, S104A
VL: B1 VL
ka (1/Ms) huBCMA @ 37° C. (hBCMA (human BCMA)): 3.15e+06 M⁻¹ s⁻¹
kd (1/s) huBCMA @37° C. (hBCMA (human BCMA)): 0.00118 s⁻¹
ka (1/Ms) cyBCMA @ 37° C. (cyBCMA): 2.87e+06 M⁻¹ s⁻¹
kd (1/s) cyBCMA @37° C. (cyBCMA): 0.0054 s⁻¹

B10: L3.PY/L1.AH/H2.QR: anti-BCMA antibody (antibody, V domains shown)
VH: B1 VH with L53G, T54S, S63Q, V64R
VL: B1 VL with S31A, S32H
ka (1/Ms) huBCMA @ 37° C. (hBCMA (human BCMA)): 3.13e+06 M⁻¹ s⁻¹
kd (1/s) huBCMA @37° C. (hBCMA (human BCMA)): 0.00181 s⁻¹
ka (1/Ms) cyBCMA @ 37° C. (cyBCMA): 2.2e+06 M⁻¹ s⁻¹
kd (1/s) cyBCMA @37° C. (cyBCMA): 0.00491 s⁻¹

B11: L3.PY/L1.PS/H2.DY: anti-BCMA antibody (antibody, V domains shown)
VH: B1 VH with S52D, L53Y, T54S
VL: B1 VL with L34P, A35S
ka (1/Ms) huBCMA @ 37° C. (hBCMA (human BCMA)): 3.22e+06 M⁻¹ s⁻¹
kd (1/s) huBCMA @37° C. (hBCMA (human BCMA)): 0.00361 s⁻¹
ka (1/Ms) cyBCMA @ 37° C. (cyBCMA): 1.9e+06 M⁻¹ s⁻¹
kd (1/s) cyBCMA @37° C. (cyBCMA): 0.00378 s⁻¹

B12: L3.PY/L1.PS/H2.LT: anti-BCMA antibody (antibody, V domains shown)
VH: B1 VH
VL: B1 VL with L34P, A35S
ka (1/Ms) huBCMA @ 37° C. (hBCMA (human BCMA)): 3.4e+06 M⁻¹ s⁻¹
kd (1/s) huBCMA @37° C. (hBCMA (human BCMA)): 0.00465 s⁻¹
ka (1/Ms) cyBCMA @ 37° C. (cyBCMA): 2.17e+06 M⁻¹ s⁻¹
kd (1/s) cyBCMA @37° C. (cyBCMA): 0.00411 s⁻¹

B13: L3.PY/L1.AH/H2.DY: anti-BCMA antibody (antibody, V domains shown)
VH: B1 VH with S52D, L53Y, T54S
VL: B1 VL with S31A, S32H
ka (1/Ms) huBCMA @ 37° C. (hBCMA (human BCMA)): 3.05e+06 M⁻¹ s⁻¹
kd (1/s) huBCMA @37° C. (hBCMA (human BCMA)): 0.00152 s⁻¹
ka (1/Ms) cyBCMA @ 37° C. (cyBCMA): 2.32e+06 M⁻¹ s⁻¹
kd (1/s) cyBCMA @37° C. (cyBCMA): 0.00451 s⁻¹

B14: L3.PY/L1.PS/H2.YQ: anti-BCMA antibody (antibody, V domains shown)
VH: B1 VH with L53Y, T54Q
VL: B1 VL with L34P, A35S
ka (1/Ms) huBCMA @ 37° C. (hBCMA (human BCMA)): 3.35e+06 M⁻¹ s⁻¹
kd (1/s) huBCMA @37° C. (hBCMA (human BCMA)): 0.0043 s⁻¹
ka (1/Ms) cyBCMA @ 37° C. (cyBCMA): 2e+06 M⁻¹ s⁻¹
kd (1/s) cyBCMA @37° C. (cyBCMA): 0.00374 s⁻¹

B15: L3.PY/H3.AE: anti-BCMA antibody (antibody, V domains shown)
VH: B1 VH with L53G, T54S, S104A, G105E
VL: B1 VL
ka (1/Ms) huBCMA @ 37° C. (hBCMA (human BCMA)): 3.29e+06 M⁻¹ s⁻¹
kd (1/s) huBCMA @37° C. (hBCMA (human BCMA)): 0.00139 s⁻¹
ka (1/Ms) cyBCMA @ 37° C. (cyBCMA): 2.82e+06 M⁻¹ s⁻¹
kd (1/s) cyBCMA @37° C. (cyBCMA): 0.00504 s⁻¹

B16: L3.PY/L1.PS/H3.TAQ: anti-BCMA antibody (antibody, V domains shown)
VH: B1 VH with L53G, T54S, A97T, S104A, G105Q
VL: B1 VL with L34P, A35S
ka (1/Ms) huBCMA @ 37° C. (hBCMA (human BCMA)): 3.25e+06 M⁻¹ s⁻¹
kd (1/s) huBCMA @37° C. (hBCMA (human BCMA)): 0.00246 s⁻¹
ka (1/Ms) cyBCMA @ 37° C. (cyBCMA): 2.58e+06 M⁻¹ s⁻¹
kd (1/s) cyBCMA @37° C. (cyBCMA): 0.00552 s⁻¹

B17: L3.PY/L1.PS/H2.QR: anti-BCMA antibody (antibody, V domains shown)
VH: B1 VH with L53G, T54S, S63Q, V64R
VL: B1 VL with L34P, A35S
ka (1/Ms) huBCMA @ 37° C. (hBCMA (human BCMA)): 3.97e+06 M⁻¹ s⁻¹
kd (1/s) huBCMA @37° C. (hBCMA (human BCMA)): 0.103 s⁻¹
ka (1/Ms) cyBCMA @ 37° C. (cyBCMA): 525000 M⁻¹ s⁻¹
kd (1/s) cyBCMA @37° C. (cyBCMA): 0.00067 s⁻¹
